Laboratory results: publication PMC5352752, “Discovery and characterization of an F420-dependent glucose-6-phosphate dehydrogenase (Rh-FGD1) from Rhodococcus jostii RHA1” (Applied Microbiology and Biotechnology, 2016)

Target: the molecule itself
Test: SEC; gel permeation analysis in solution, data not shown

B1: F420-dependent glucose-6-phosphate dehydrogenase Rh-FGD1 from Rhodococcus jostii RHA1 (enzyme, UniProt Q0RVH7 1-335, looked up)
chain: MVIKFGYKASAEQFGPRELVELGVLAEAHGMDSATVSDHFQPWRHEGGHAPFSLAWMTAVGERTSRLQLGTSVMTPTFRYNPAVVAQAFATMGCLYPGRIMLGVGTGEALNEIATGFAGEWPEFKERFARLREAVALMRELWLGDRVDFEGNYYKTVGASIYDVPEGGIPVYIAAGGPVVARYAGRSGDGFICTSGKGMELYTEKLMPAVAEGAEKADRDVAEIDKMIEIKISYDTDPELALENTRFWAPLSLTPEQKHSIDDPIEMERAADALPIEQVAKRWIVASDPDEAVAQIRPYLDAGLNHLVFHAPGHDQKRFLELFQRDLAPRLRGLA
notes: each monomer is comprised of residues 1-334; The native enzyme (tag cleaved) was used for crystallization; also called RHA1_RS43115; native Rh-FGD1; source: E. coli C41(DE3), purified (HisTrap, His-SUMO tag cleaved with SUMO protease, second HisTrap, Superdex 200); not shown: His6, N-terminal, cleaved; SUMO, N-terminal, cleaved
  stoichiometry N: 2
